The results in this text go back to PMC9979629 (Antiviral Research, 2023).

Where a chain is given by its changes, count along the chain named.

The test concerns the target His-tagged wild-type SARS-CoV-2 RBD (SARS-CoV-2, UniProt P0DTC2). Kind of test: ELISA. (In general: An ELISA detects its analyte on a solid surface through an enzyme-linked reagent.)

B1: K102.1 (antibody, V domains shown)
VH: EVQLLESGGGLVQPGGSLRLSCAASGFTFSDYAMSWVRQAPGKGLEWVSWIYSGSGNKYYADSVKGRFTISRDNSKNTLYLQMNSLRAEDTAVYYCARFPIARTSNSQSSYDGMDVWGQGTLVTVSS
VL: QSVLTQPPSASGTPGQRVTISCSGSSSNIGSNAVSWYQQLPGTAPKLLIYADNKRPSGVPDRFSGSKSGTSASLAISGLRSEDEADYYCGAWDSSLNAYVFGGGTKLTVL
As for B1, the binding result is reported as “binds”.

B2: K102.2 (antibody, V domains shown)
VH: EVQVLESGGGLVQPGGSLRLSCAASGFTFSSYDMSWVRQAPGKGLEWVSGISYSGGSTYYADSVKGRFTISRDNSKNTLYLQMNSLRAEDTAVYYCARDVNFVPLVTFDYWGQGTLVTVSS
VL: B1 VL with I20L, S23T, A33S, S35T, A51D, K54Q, A91T, S94Y, N97S
B2: the binding result was “binds”.
